Reference: US11572561B2, “Method and composition for inhibiting growth of bacterium” (priority 2020, dated 2023)
Entries after “also recorded” stand apart in the source; their conditions may differ.

Legend:
[1] = tested on: AS1974 target genes (mexD, chtA, prc, major facilitator superfamily, pilD, ndvB); test: Real-time qPCR of AS1974 target genes in AS1974-overexpressing resistance strain; type: cell-based, P. aeruginosa; settings: R3-AS1974 vs R3-EV (empty vector)
Experimental: One of the major functions of sRNAs is to suppress the target gene expression under particular conditions or in response to external stimuli. To find out the regulatory roles of AS1974 sRNAs in various drug resistance pathways, the inventors sequenced the transcriptomes of six strains, and they used newly developed program to correlate sRNA repertoires with transcriptomes. […] To validate the transcriptome result, real-time qPCR experiments were performed to measure and compare the transcript levels of these genes in both drug-susceptible and drug-resistant strains.
To further investigate if these drug-resistant genes were directly controlled by this sRNA, AS1974 was overexpressed in the resistance strain and their transcript levels were measured by qPCR. Empty vector was used as a negative control. […]
Six P. aeruginosa strains, S1, S2, S3, R1, R2, and R3, were grown at 37° C. overnight in nutrient broth with shaking at 250 rpm and harvested at stationary phase (OD600=1.5-1.7). […] Melting curves were determined by an auto-dissociation program. […] The results were expressed as the means of at least 3 independent experiments. Data are presented as mean±SD, and comparisons were analyzed using unpaired t test (two tailed: *p<0.05, **p<0.01, and ***p<0.001).

[2] = tested on: total transcripts of P. aeruginosa; test: Transcriptome profile comparison of AS1974-transformed and control strains (off-target effect); type: cell-based; settings: AS1974-transformed vs control strains
[3] = tested on: resistance strains of P. aeruginosa (R3); test: MIC measurement (microbroth dilution) of resistance strain overexpressing sRNA; type: cell-based; settings: transformed R3 strain
Excerpt: Different classes of antibiotics including aminoglycoside, cephalosporin, beta-lactam, extended-spectrum penicillin beta-lactam, fluoroquinolone were used. Antibiotics susceptibility and resistance strains are highlighted. R3-AS1974, R3-AS2779 and R3-IGR2780 represent R3 strains transformed with the corresponding sRNA while R3-AS1974-Reverse represents R3 strains transformed the sRNA which sequence was reverse and complementary to AS1974 (negative control). R3-empty vector was used as vector control. The strain ATCC27853 was used for quality control.
To find out if the sRNAs directly play a role in the intrinsic drug resistance of bacteria, each of the sRNAs was overexpressed in the resistance strains of P. aeruginosa, and MIC measurements were performed. […]
The MICs of 11 antibiotics, including penicillin G, cefotaxime, chloramphenicol, tetracycline, erythromycin, lincomycin, ciprofloxacin (Sigma, St. Louis, Mo., USA), levofloxacin (Daiichi Sankyo, Tokyo, Japan), gatifloxacin (Bristol-Myers Squibb, Moreton, UK), moxifloxacin (Bayer Healthcare Pharmaceuticals, Berlin, Germany), and linezolid (Pfizer, NJ, USA), were determined using the microbroth dilution method, according to the Clinical and Laboratory Standards Institute (CLSI). […]

B1: AS1974: sRNA of P. aeruginosa, SEQ ID NO: 2, located at the antisense region of mexR (nucleic acid, listed as Pseudomonas aeruginosa)
chain: GAATGTTCTTAAATATCCTCAAGCGGTTGCGCGGCCAGGCACTGGTCGAGGAGATGCACCAGGGTGGCCTGTTCCACCGGGGTGAGCGGGGCAAACAACTCGTCATGCACGCGTGACATGATGGCCTC
For B1, the “target gene expression upon overexpression of sRNA” value [1] was “downregulated”, the “total transcripts affected (off-target effect)” value [2] was “less than 1%” and the “resistance of the AS1974-overexpressed strain to chloramphenicol” value ([3]; chloramphenicol) was “still showed resistance”. For the same molecule, the “effect of sRNA overexpression on MIC / antibiotic susceptibility of the resistance strain” value ([3]; aminoglycoside, cephalosporin, meropenem, ertapenem, empty vector control) was “hypersusceptibility; also recorded: transformed the bacteria from resistant strains to drug-sensitive strains”.
